T1: GST-tagged full-length Elp1 (S. cerevisiae, UniProt Q06706 1-1349)
T1 construct: Elp1, Elongator subunit 1, S. cerevisiae; also called GST-Elp1; source: E. coli BL21 pSarRare, purified (NiNTA, S200 gel filtration); not shown: His6, N-terminal, kept; GST, N-terminal, kept
T1 sequence (looked up): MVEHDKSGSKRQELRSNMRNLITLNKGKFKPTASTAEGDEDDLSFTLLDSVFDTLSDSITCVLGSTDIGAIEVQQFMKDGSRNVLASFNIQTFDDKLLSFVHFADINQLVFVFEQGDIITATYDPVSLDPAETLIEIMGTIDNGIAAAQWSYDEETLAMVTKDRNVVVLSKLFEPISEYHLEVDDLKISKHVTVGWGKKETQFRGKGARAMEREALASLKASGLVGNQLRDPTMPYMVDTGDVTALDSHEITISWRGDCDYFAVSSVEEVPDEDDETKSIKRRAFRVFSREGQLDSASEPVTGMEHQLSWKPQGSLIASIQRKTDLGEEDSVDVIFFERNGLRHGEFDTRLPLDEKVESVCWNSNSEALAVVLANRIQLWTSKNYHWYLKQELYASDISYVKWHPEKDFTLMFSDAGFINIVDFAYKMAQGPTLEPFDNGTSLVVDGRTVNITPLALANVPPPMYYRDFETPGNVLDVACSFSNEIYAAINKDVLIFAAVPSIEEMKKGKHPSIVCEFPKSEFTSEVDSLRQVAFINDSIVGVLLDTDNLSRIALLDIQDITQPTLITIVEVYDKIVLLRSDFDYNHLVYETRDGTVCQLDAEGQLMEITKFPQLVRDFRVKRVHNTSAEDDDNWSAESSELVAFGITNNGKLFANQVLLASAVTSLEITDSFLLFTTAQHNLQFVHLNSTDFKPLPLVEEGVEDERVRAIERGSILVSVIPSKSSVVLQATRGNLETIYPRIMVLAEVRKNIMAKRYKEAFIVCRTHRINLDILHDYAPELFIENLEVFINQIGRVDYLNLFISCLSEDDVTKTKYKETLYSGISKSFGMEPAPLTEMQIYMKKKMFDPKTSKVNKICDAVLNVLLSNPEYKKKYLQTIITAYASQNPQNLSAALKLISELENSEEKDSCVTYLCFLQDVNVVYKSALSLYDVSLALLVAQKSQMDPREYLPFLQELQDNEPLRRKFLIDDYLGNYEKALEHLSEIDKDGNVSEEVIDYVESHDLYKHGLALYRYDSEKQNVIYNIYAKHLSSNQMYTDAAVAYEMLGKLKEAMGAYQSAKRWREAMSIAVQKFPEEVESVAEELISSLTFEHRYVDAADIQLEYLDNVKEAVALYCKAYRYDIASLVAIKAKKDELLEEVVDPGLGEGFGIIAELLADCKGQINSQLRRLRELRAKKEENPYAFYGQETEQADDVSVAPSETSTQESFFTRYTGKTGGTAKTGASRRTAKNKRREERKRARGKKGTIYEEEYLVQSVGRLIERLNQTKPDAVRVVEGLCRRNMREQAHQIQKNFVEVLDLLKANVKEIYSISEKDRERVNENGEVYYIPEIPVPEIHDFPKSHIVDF

T2: purified N-terminal region of Elp1 (S. cerevisiae)
T2 chain: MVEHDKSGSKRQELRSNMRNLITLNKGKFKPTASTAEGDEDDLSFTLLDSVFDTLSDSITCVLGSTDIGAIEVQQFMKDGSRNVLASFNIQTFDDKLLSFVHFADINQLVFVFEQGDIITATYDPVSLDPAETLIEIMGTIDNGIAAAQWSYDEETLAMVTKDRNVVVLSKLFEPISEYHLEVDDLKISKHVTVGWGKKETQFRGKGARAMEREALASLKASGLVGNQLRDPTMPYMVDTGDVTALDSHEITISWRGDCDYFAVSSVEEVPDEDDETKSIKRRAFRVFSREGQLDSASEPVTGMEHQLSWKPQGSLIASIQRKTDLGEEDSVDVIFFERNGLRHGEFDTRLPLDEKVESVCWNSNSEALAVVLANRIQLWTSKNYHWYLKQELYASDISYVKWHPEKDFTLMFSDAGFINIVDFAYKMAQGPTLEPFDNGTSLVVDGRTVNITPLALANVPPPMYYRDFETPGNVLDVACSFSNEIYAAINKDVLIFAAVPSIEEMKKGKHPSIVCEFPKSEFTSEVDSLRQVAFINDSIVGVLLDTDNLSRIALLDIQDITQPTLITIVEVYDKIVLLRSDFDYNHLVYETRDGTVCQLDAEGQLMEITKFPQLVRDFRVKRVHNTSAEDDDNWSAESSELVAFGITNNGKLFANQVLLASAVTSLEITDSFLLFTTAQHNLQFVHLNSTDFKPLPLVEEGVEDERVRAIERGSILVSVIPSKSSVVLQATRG

B1: Full-length His6-tagged ScElp3, refolded and anaerobically reconstituted (enzyme, S. cerevisiae, UniProt Q02908 1-557, looked up)
chain: MARHGKGPKTNKKKLAPEKERFIQCCADITLELTDSLTSGTTREINLNGLITKYSKKYKLKQQPRLTDIINSIPDQYKKYLLPKLKAKPVRTASGIAVVAVMCKPHRCPHIAYTGNICVYCPGGPDSDFEYSTQSYTGYEPTSMRAIRARYDPYEQARGRVEQLKQLGHSIDKVEYVLMGGTFMSLPKEYREDFIVKLHNALSGFNGNDIDEAILYSQQSLTKCVGITIETRPDYCTQTHLDDMLKYGCTRLEIGVQSLYEDVARDTNRGHTVRSVCETFAVSKDAGYKVVSHMMPDLPNVGMERDIEQFKEYFENPDFRTDGLKIYPTLVIRGTGLYELWKTGRYKSYSANALVDLVARILALVPPWTRIYRVQRDIPMPLVTSGVDNGNLRELALARMKDLGTTCRDVRTREVGIQEVHHKVQPDQVELIRRDYYANGGWETFLSYEDPKKDILIGLLRLRKASKKYTYRKEFTSQRTSIVRELHVYGSVVPLHSRDPRKFQHQGFGTLLMEEAERIAKEEHGSEKISVISGVGVRNYYGKLGYELDGPYMSKRI
notes: Elp3, Elongator subunit 3, S. cerevisiae; Carries a reconstituted Fe/S cluster; also called ScElp3H6
B2: endogenous Elp3 (enzyme, UniProt Q02908 1-557, looked up)
chain: B1 chain
notes: Elp3, S. cerevisiae, endogenous protein; source: endogenous, S. cerevisiae strains BS1173 and BSY2369, co-purified with Elp1-TAP or Elp6-TAP
B3: synthetic peptide of the conserved N-terminal region of Elp4 (aa1–27) (peptide, UniProt Q02884 1-27, looked up)
peptide: MSFRKRGEILNDRGSGLRGPLLRGPPR
notes: Elp4, S. cerevisiae, residues 1–27; source: synthetic peptide (Peptide Specialty Laboratories, Germany)
B4: endogenous Elp4 (natural protein, UniProt Q02884 1-456, looked up)
chain: MSFRKRGEILNDRGSGLRGPLLRGPPRTSSTPLRTGNRRAPGNVPLSDTTARLKKLNIADESKTKMGLDSSHVGVRPSPATSQPTTSTGSADLDSILGHMGLPLGNSVLVEEQSTTEFHSILGKLFAAQGIVHNRISDSSADKTRNGDTHVIVLSLNQMFAKELPGIYKGSRKQMKKNLISEEESKVTVQNLNETQRSTPSRYKDLKIAWKYKLADEKRLGSPDRDDIQQNSEYKDYNHQFDITTRLMPAPIASELTFIAPTQPVSTILSQIEQTIKRNDKKLIRIVIPSLLHPAMYPPKMFESSEIIGLMHGVRSLVKKYYERVVLFASISIDIITPPLLVLLRNMFDSVINLEPFNQEMTEFLERVYKSQPGKIQHGLVHILKLPVFTDRGEMRVLKSEWAFKNGRKKFEIEQWGIPVDDAEGSAASEQSHSHSHSDEISHNIPAKKTKISLDY
notes: Elp4, S. cerevisiae, endogenous protein; source: endogenous, S. cerevisiae strains BS1173 and BSY2369, co-purified with Elp1-TAP or Elp6-TAP
B5: endogenously TAP-tagged Elp1 (natural protein, UniProt Q06706 1-1349, looked up)
chain: T1 sequence (looked up)
notes: Elp1, S. cerevisiae, endogenous protein with TAP tag (Elp1-TAP::TRP1); also called Elp1-TAP
B6: synthetic peptide of the conserved N-terminal region of Elp4 (aa1–10) (peptide, UniProt Q02884 1-10, looked up)
peptide: MSFRKRGEIL
notes: Elp4, S. cerevisiae, residues 1–10; source: synthetic peptide (Peptide Specialty Laboratories, Germany)

Tests used:
[1] = target: T1, GST-tagged full-length Elp1; experiment: pull-down; GST pull-down: 20 μg GST-tagged protein and increasing amounts of untagged partner with glutathione Sepharose, 2 h at 4°C, 20 mM Tris pH 7.5, 150 mM NaCl, 5 mM DTT, 0.1% Tween-20; five washes; SDS–PAGE, Coomassie; details: both partners purified
[2] = target: B5; experiment: tandem-affinity purification (SDS–PAGE); endogenous TAP-tagged bait from yeast lysate; IgG Sepharose, TEV elution, Calmodulin Sepharose, EGTA elution; HEPES pH 7.9, 125 mM NaCl; details: partners not purified
[3] = target: T2, purified N-terminal region of Elp1; experiment: ITC; VP-ITC; 20 mM Tris–HCl pH 7.5, 150 mM NaCl, 2 mM β-mercaptoethanol; 10 μM in the cell, 100 μM in the syringe; details: both partners purified
[4] = target: B2; experiment: cross-linking; XL-MS of purified Elongator (Elp1-TAP sample, 1 mg/ml) with isotope-coded DSS or DSG, 0.5–2 mM, 30 min at 37°C; xQuest/xProphet, ld score at least 30; details: both partners purified
[5] = target: the molecule itself; experiment: negative-stain EM reconstruction with integrative modelling (EM map and cross-links); Elp123 sub-complex from Elp1-TAP purification, 0.01% glutaraldehyde, gel filtration; 1% uranyl acetate; C2 symmetry, 27 Å

| binding result [2] | Kd [3] [µM] | Binder | other results |
| --- | --- | --- | --- |
| – | – | B1 | binding result [1]: binds |
| binds | – | B2 | – |
| – | 1.6 ± 0.4 | B3 | – |
| binds | – | B4 | binding result [4]: binds |
| – | – | B5 | stoichiometry N [5]: 2 |
| – | 2.7 ± 0.3 | B6 | – |
